The experiment has as its target gankyrin (UniProt O75832). As to the kind of experiment: ITC. (In general: ITC needs no label: the signal is the heat of the interaction.)
UniProt O75832, sequence (O75832 whole entry): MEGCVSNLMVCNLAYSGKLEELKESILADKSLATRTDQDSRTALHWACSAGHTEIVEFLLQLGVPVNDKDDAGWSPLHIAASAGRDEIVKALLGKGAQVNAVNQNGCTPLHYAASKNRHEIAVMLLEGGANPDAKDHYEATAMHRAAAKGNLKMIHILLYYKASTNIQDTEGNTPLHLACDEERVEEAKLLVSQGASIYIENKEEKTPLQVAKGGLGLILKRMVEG

In the case of FtsH-S6 ATPase, the dH is -29 kcal/mol.

(Values after article PMC4750872.)
